# System: K4 kissing-loop RNA reporter
# Test: apparent KD of K4 kissing-loop reporter; higher = weaker reporter binding
# Details: Eterna round: R107; input ligand: arginine 13.2 mM
# Description: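 RNA-MaP round R107: designed RNA switches with theophylline, tryptophan, arginine or FMN aptamers are transcribed on-chip within common flanks. They are titrated with a labelled K4 kissing-loop RNA reporter in RNA-MaP buffer (100 mM Tris pH 7.5, 80 mM KCl, 4 mM MgCl2), without ligand or with the indicated ligand. Median apparent KD per design.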
# 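Further: bound reporter read as fluorescence of individual clusters on recovered sequencing chips by microscopy, with normalized cluster intensities fitted with a binding model.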
row,Sequence,apparent KD of K4 kissing-loop reporter [nM]
1,AAAAUAAUCCAGUGAUGUUGGUAUUCAGAUACCAGCGACGAAAGUCGCCCUUGGCAGCUGUGGACGUACAAAAUAAGUACGUCCU,657
2,CCGUGGAGUGAUGUUCCACGUACUACGGAUACCAGCUUUGCCAAAGGCCCUUGGCAGCCGCACGUUGCAGUGAUGUUGUGGCGCG [Same State Theophylline A G9],241
3,UGUUUUUACUGAAGGAGCGGCAAUUGAUACGUAGAUAUAGUGAUGUUAUAUAAGAUAGAGAGCCAGGUAGGUCGCAGAAUGUAUC [ExArgB.aC],212
4,UUGGCUGGACGGGAUACCAGCCAAAUCGUGGGCUUGGGAUGUCUAAGAGCCAGUGAUGUUGGCCCUUGGCAGCCCUCCCAGCUUG [Xerirala],97.7
5,UGUCAUUGGUCGGCCGCCACUUGAAGGUCAAAGACCAUAGAGUGAUGUUCUAAGACGAAAGUCACAAGGACCGGGACCGAUGACU [TrypBS 3 #SwitchBubble #K4Middle],134
6,UGUUAUGUAUCAGGAUAUUAGUGAUGUUUGUUGAUGUUAGUGAUGUUGAUAUUUGUUUUAUGUAUUUAAGAAGGGAUUGAGAUGU [ooilmullin],19.2
7,UUUAAAUAUAGUGAUGUUAUAUAACAAUGACGAGGACCGGUACGGCCGCCACUCGAGAGAGAUAAUGGUCAUACAAAUGUAUGUC [AstrosSSTryA#7],706
8,UUUUGGUACUGAGGAUAUUCGACGAAAUAUAGUGAUGUUAUAUAAGGAGGAGGAGGGUGGGAGGAAGGAGAAGGCAGAAGAGGAG [#06 K4 FMN B Exclusion],179
9,GAUGCCAUGAUCCUCCUGGUAUCGGGAGAUACCAGCGUGCUGACACGCCCUUGGCAGCUCCAUUCGAGAGUGAUGUUGUCGAGAA [KL-SSTheo-A8 #analogue],114
10,GGAUAGGACGGAGGAUAUGGUAGUGAUGUUACCAAACUGGUUAAACAUGUCAGAAAACUGGCAUGACCAGAAGGCUGUCCUAUCG [FmnBX 27 G10],65.2
11,GGCCGCAAGGCGAGCGCUCCCACUCCGGAAGGAGCGCCCGGAAGGGCAGGUAGGUCGCCGGAGUGAUGUUCCGGUGGAGGGCUCG [#2 Exclusion - Arginine A Attempt #18 (Inspired by Omei)],319
12,UAGGAGUGAUGUUCCAUAUGUAAGGCCGAAGGAGCGGCAUUAUAGCCAGGUAGGUCGCGGCAGUACGUACCAGUGAUGUUGGAAA [KL-SSArg-A5],94.9
13,CCGCUACCCUCAGGAUAUUAAUAUGGAGUGAUGUUCUAUGUCCGAUGGCGGAAACGCCAUCGGGAAUAAGAAGGGAGGGUAGCGG,261
14,AGCCGAAAGGCGAGUGCUGUCACUCCGGAAGGAGCGGCGAAAACGCCAGGUAGGUCGCCGGAGUGAUGUUCCGGUGCAGCACUCA [Omei KL Arginine A Exc B v2],410
15,AGCAAUAUCACGGCCGCCACUGAAUAUUGUUUUUAUAUUUAGAAAUCUUGCCAGUGAUGUUGGUUCAGGACCGGGUGAGUUAAUA [JR_SSTryptoB_Sub005],430
16,GGGCGCGGCGCGGCCGCCACUGCGCCUGGGUGCUCGCCGAGUGAUGUUCGUCGGCGGUUGGGUGGCAGGACCGGGUGCCGGCCCG [BDazzled - #17 SS Tryptophan B],533

row,Sequence,apparent KD of K4 kissing-loop reporter [nM]
1,AUUACAUCUGAAAAGCUAGUGAUGUUAGCUCGAGGACCGGUACGGCCGCCACUCGCAUAGCGAGGCCAAGUCGCGGUUAACGGAG [theeternabot_exclusion_KL_Trp_A_4],86.7
2,UGAUACCAGACUGAUACCAGCGAGUGAUGUUCGCUGAAAUCAGGGUCAAAGACCCUGUCUCGCCCUUGGCAGCAGUCUGGUAUCU [TheoBX 20 #SwitchBubble #StaticStem],120
3,UGGAUAUAGUGAUGUUAUAUAGAGAUGGAUACCAGCUAAGAGAAUAGCCCUUGGCAGCCGAAAGAAGUAUCAUUAGAGAAGAAUG [ExTheophyl.Ae],231
4,UGACAUUGCUCAGAUACCAGACAUGAGCAUCAGCCAUGUGCCAAAACGUACUAAAUAAAUGUCCCUUGGCAGCUGAGCAAUGUCU [TheoBX 13],26.3
5,CUUGAUGUAGCGGCCGCCACUCUAGAUCCGCAUCGGAUGAGGUACUUGAAGUGAUGUUUUGAGGUGAGGACCGGGCUCUAAAGAA [theeternabot_sameState_KL_Trp_B_16],455
6,AAAAUAAACCAGUGAUGUUGGUGUCCAGAUACCAGCGAUAAAAUUCGCCCUUGGCAGCUGUGGACGUACAAAAUAAGUACGUCCU [MatMod 3 - Jieux - Same State - Theophylline A],555
7,CCGUAUGUCCACUAUUGAGUGAUGUUCAAGCGAGGACCGGUACGGCCGCCACUCGCGUUACCCACCACGUGUCGCCGCACUUACC [theeternabot_exclusion_KL_Trp_A_42],160
8,CCGGCCCAGCCGGAUACCAGUGCGCCGCAGGGAACGGCGGGCCCAGAGUGAUGUUCGGGACACCCUUGGCAGCCGCCUGGGUCCC [#2 Same State - Theophylline B Attempt #30 (HarryS)],364
9,GCUCAUCCGGCAGGAUAUAGGCAGGUAGAGUGAUGUUCGAACUGCAGUUAUCCAUCCUUCUACCUACUAGAAGGGCCGGAUGAGC,214
10,GACGUGCGAGAGACCGCUCUACCUUGAGAUCGAGGACCGGUACGGCCGCCACUCGGUGUUUAACGUCGAUCCCAGUGAUGUUGGA [theeternabot_sameState_KL_Trp_A_21],230
11,GCCGUACGCAUGGAUACCAGAGAUGUUAAUCUCGAUGCCAGUGAUGUUGGCUUUAGCAUACUCCCUUGGCAGCCAUGCGUACGGC,241
12,CGAGAAAGAGCGACUGGCGAUCUGUCUGAAGGAGCGGGUGCUAGCCCAGGUAGGUCGCAGACUUUGACGCCAGUGAUGUUGGCGG [Titidiisxe],175
13,UAUAGAGUGACGGCCGCCACUAUUGUGAUUUAAUUGUUAGAGUGAUGUUUUGUUGUUUGAUUUUGUAGGACCGGGUUAUAUGUUA [ecewzmullin],768
14,UGCGCUGUGUCCUAAAAUGUCCUCCGGGAUACCAGAGUCUUUUUAUUCCCUUGGCAGCUUGAGUGAUGUUUGAUGCCGUUCUUGU [xxbxymullin],478
15,UCGCGUCUGUGAGGAUAUCAGAACAGAGUGAUGUUCUGUCAACGCCCAGUGAUGUUGGAUGCGAUCUGAGAAGGCACUGGGCGCA [Same State FMN B GF 9],865
16,CUUGUACAUGCCGAGGUAGGUGCGGGUUAGCGAGGACCGGUACGGCCGCCACUCGCCAAGUGAUGUUUGGUCCUUUGGAUCGGCA,453

# Same assay, conditions: Eterna round: R107; input ligand: none
row,Sequence,apparent KD of K4 kissing-loop reporter [nM]
1,CAACGAGUGAUGGUCGUUGACGGCCAUCCCGAGGAUAUGGGAUUUUCCAGAAGGCGGGAUCGCCCGGAGUGAUGUUCCGUGAUUU [Same State FMN A GF 15],150
2,UUUUAAAUGUCUGAUACCAGAGAAAAUAUAUGUAGUGAUGUUAUAUACAAAAUAAAUAAGCUCCCUUGGCAGCAGUAUUAAUUUU [AstrosExc-TheB#6],863
3,AAAGAUGCGUCGGCCGCCACUGUGAUCUACGAAAGUAGUAUGUAGAUGCAGUGAUGUUGCAUUUUCAGGACCGGGACGUAAGAUG [3rd],321
4,AAUUCAGUGAUGUUGGAAGGCAGGCGGGAUACCAGCGGAGAAUAACGCCCUUGGCAGCCCAAAUAUCCCAAAUAGAUAAUAGUUC [Same State - Theophylline A (Freestyle 2)],481
5,GGUGCUGUUUGUGCCGCCUUCCUCGUUCCUCGAGGACCGGUACGGCCGCCACUCGAGUGAUGUUUGGGUAGCGAUCCCUGCUAGU [Bdazzled - #13 Exc. Tryptophan A],963
6,UUAGGAGUGGGAGGAUAUCCUAAUAUGGGUGAUGUUAGCGAUGUUGAAAGUGUAGUGAUGUUGUGCGGAGAAGGUCCAGUGUUGA [BDazzled - #13 - Exc. FMN B],178
7,UUCGAAAGUCGAAGGAGCGCUGUCGGUCAUAGACCAUAUCUGUAGUGAUGUUACAGAUGACAGCAGGUAGGUCGCGACAGAGACA [Arg B SS t18],127
8,GUGCGCGGUGCGGCCGCCACUCGGAUGCGAGUGAUGUUCGCGGGACGGACGCAAGUCCGUCAUUCGAGGACCGGGCAUGGCUGUA [#2 Same State - Tryptophan B Attempt #5 (HarryS)],247
9,UGUACCGAGUCAGGAUAUCAUAAUAAAUCCAGUGAUGUUGGAAUAACCAGUACAAAGUACUGGCCUUGAGAAGGGACUUGGUACU [FmnBS 3 #SwitchBubble #StaticStem],163
10,AGGCACGAGCAAGGAUAUUGAGUAGAGUGAUGUUCUGCCUGGGUUGGCUCGAAAGAGCCUUCUCAGCGAGAAGGUGCUCGUGCCU [#2 Same State - FMN A Attempt #22 (HarryS)],616
11,AAAAUAAUCCAGUGAUGUUGGUAUUCAGAUACCAGCGACGAAAGUCGCCCUUGGCAGCUGUGGACGUACAAAAUAAGUACGUCCU,1060
12,CCGUGGAGUGAUGUUCCACGUACUACGGAUACCAGCUUUGCCAAAGGCCCUUGGCAGCCGCACGUUGCAGUGAUGUUGUGGCGCG [Same State Theophylline A G9],327
13,UGUUUUUACUGAAGGAGCGGCAAUUGAUACGUAGAUAUAGUGAUGUUAUAUAAGAUAGAGAGCCAGGUAGGUCGCAGAAUGUAUC [ExArgB.aC],237
14,UUGGCUGGACGGGAUACCAGCCAAAUCGUGGGCUUGGGAUGUCUAAGAGCCAGUGAUGUUGGCCCUUGGCAGCCCUCCCAGCUUG [Xerirala],95.9
15,UGUCAUUGGUCGGCCGCCACUUGAAGGUCAAAGACCAUAGAGUGAUGUUCUAAGACGAAAGUCACAAGGACCGGGACCGAUGACU [TrypBS 3 #SwitchBubble #K4Middle],133
16,UGUUAUGUAUCAGGAUAUUAGUGAUGUUUGUUGAUGUUAGUGAUGUUGAUAUUUGUUUUAUGUAUUUAAGAAGGGAUUGAGAUGU [ooilmullin],38.7
17,UUUAAAUAUAGUGAUGUUAUAUAACAAUGACGAGGACCGGUACGGCCGCCACUCGAGAGAGAUAAUGGUCAUACAAAUGUAUGUC [AstrosSSTryA#7],1100
18,UUUUGGUACUGAGGAUAUUCGACGAAAUAUAGUGAUGUUAUAUAAGGAGGAGGAGGGUGGGAGGAAGGAGAAGGCAGAAGAGGAG [#06 K4 FMN B Exclusion],238
19,GAUGCCAUGAUCCUCCUGGUAUCGGGAGAUACCAGCGUGCUGACACGCCCUUGGCAGCUCCAUUCGAGAGUGAUGUUGUCGAGAA [KL-SSTheo-A8 #analogue],330
20,GGAUAGGACGGAGGAUAUGGUAGUGAUGUUACCAAACUGGUUAAACAUGUCAGAAAACUGGCAUGACCAGAAGGCUGUCCUAUCG [FmnBX 27 G10],73
21,GGCCGCAAGGCGAGCGCUCCCACUCCGGAAGGAGCGCCCGGAAGGGCAGGUAGGUCGCCGGAGUGAUGUUCCGGUGGAGGGCUCG [#2 Exclusion - Arginine A Attempt #18 (Inspired by Omei)],417

# From the supplement of paper PMC9170038
